# Assay: yeast display, Sf9 membrane polyspecificity reagent, FACS + sequencing; frameworks hold sequencing errors
# Procedure, shortened: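 A nanobody's polyreactivity label depends on the gate it was sorted from. Yeast display cells were stained with 10% biotinylated, detergent-solubilized Sf9 membrane reagent for 1 hour at 4 °C, enriched on streptavidin microbeads and sorted by FACS. The low and high (top ~1%) gates were set on anti-HA fluorescence for expression and streptavidin fluorescence for reagent binding.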
row,Sequence,polyreactivity (PSR sort gate)
1,QVQLVESGGGLDQAGGSLRLSCAASGRTFGKYAMGWYRQAPGKERELVAAITGGGGTKYADSVKGRFTISRDNAKNTFYLQMNSLKPEDTAVYYCAAASGSRRHGFWGQGTQVTVSS,high polyreactivity
2,QVQLVESGGGLDQAGGSLRLSCAASGRTFQGYAMGWYRQAPGKERELVAAISRSGGRTYYADSVKGRFTISRDNAKNTVYLQMNSLKPEATAVYFCATDAFRDYGYWGQGTQVTLSS,high polyreactivity
3,QVQLVESGGGLDQAGGSLRLSCAASGRTFSYYAMGWYRQAPVKERELVAGISWRGTSTYADSVKGRFTISRDNAKNTFYLQMNRLKPEHTAVYYCNAEVTGHYSYHKFDYWGQGTQVTVSS,low polyreactivity
4,QVQLVESGGGLDQAGGSLRLSCAASGRTFTHNVMGWYRQAPGKEMELVAGISSTGGSTYYADSVKVRFTISRDNAKNTVYLQMNSLKPEDTAVYYCAKQRRSFYDFFHYDYWGLGTQVTVSS,low polyreactivity
5,QVQLVESGGGLDQAGGSLRLSCAASGRTFTVNTMGWYIQAPGKERELVAAIPNGGSTNYADSVKGRFTISHDNAKNTVYLQMNSLKPEDTAVYYCAAYYYYTLYYRYDYWGQGTQVTVSS,low polyreactivity
6,QVQLVESGGGLDQAGGSLRLSCAASGRTFVVYAMGWYRQAPGKERELVAAITSSGNTYYADSVKGRFTISRDNAKNTVYLQMNSLKPEDTAVYYCAAYSLYGYDYWGQGTQVTVSS,low polyreactivity
7,QVQLVESGGGLDQAGGSLRLSCAASGRTFYTYVMGWYRQAPGKEREFLAAITYSGGSTYYADSVKGRFTISRDNAKNTVYLQMNSLKTEDSAVYYCNAEWTYSEWYGQYLEFDYWGQGTQVTVSS,high polyreactivity
8,QVQLVESGGGLDQAGGSLRLSCAASGSIFDTYAMGWYIQAPGKSWELVAAISWGGGSTYYADSVKGRFTISRDNAKNTVYLQMNSLKPEDTAVYYCATEYFFLGGWYEYWGQGTQVTVSS,high polyreactivity
9,QVQLVESGGGLDQAGGSLRLSCAASGSIFGFYAMGWSRQAPGKERELVAAITWRGGSTYYADSVKGRFTISRDNAKNTVYLQMTILKPEDTAVYYCAATSARRQTYNFAKYDYWGQGTQVTLSS,low polyreactivity
10,QVQLVESGGGLDQAGGSLRLSCAASGSIFGYNGMGWYRQAPGKESEFVAAISYSGSRTYYADSVKGRFTISRDNAKNTVYLQMNSLKPEDTAVYYCATDDSHYLYRTVSAWEYDYWGQGTQVTVSS,low polyreactivity
11,QVQLVESGGGLDQAGGSLRLSCAASGSIFLRYAMGWYRQAPGKERELVAAITTGGGSTYYADSVKGRFTISRDNAKNTVYLQMNSLKPEDTAVYYCAKRAQYHWRGRDDYSYYYWGQGTQVTVSS,low polyreactivity
12,QVQLVESGGGLDQAGGSLRLSCAASGSIFMPNAMGWYRQAPGKERELVAAISASTSSTYYADSVKGRFTISRDNAKNTVYLEMNSLKPEDTGVYYCAAYYVFFYLEDVYYEYDYWGQGTQVTVSS,high polyreactivity
13,QVQLVESGGGLDQAGGSLRLSCAASGSIFPLYAKGWYRQAPGKERELVADITVSGGSTYYADSVKGRFTISRDYAKNTVYLQMNSLKPEDTAVYYCAKDNGPWFAYDYWGQGTHVTVSS,low polyreactivity
14,QVQLVESGGGLDQAGGSLRLSCAASGSIFRSYAMGWYRQAPGKERELVATIDRSGGSTYYADSVKGRFTISRDNAKNTVYLQMNSLKPEDTAVYYCNKTPHFPRPGFNYWGQGTQVTVSS,low polyreactivity
15,QVQLVESGGGLDQAGGSLRLSCAASGSIFVLYAMGWYRQAPGKERELVAAITRSGGDTYYADSVKGRFTISRDNAKNTVYLQMNSLKPEDTAVYYCAAERSWYPWVATGYYWGQGTQVTVSS,low polyreactivity
16,QVQLVESGGGLDQAGGSLRLSCAASGSIFVRNAMGWYRQAPGKERELVASISRRGGSTYYADSVKGRFTISRDNAKNTVYLQMNSLKPEDTAVYYCAAVVRRAPEFDYWGQGTQVTVSS,high polyreactivity
17,QVQLVESGGGLDQAGGSLRLSCAASGSNLVSNDMGWYRQAPGKERELVAAMSWSGGSTYYADSVKGRFTISRDNAKNTVYLHMNSLKPEDTAVYYCAAGFGFLFARQELEFDYWGQGTQVTVSS,low polyreactivity
18,QVQLVESGGGLDQAGGSLRLSCAASGSTFDGYAMGWYRRAPGKERELVAAITSSDGSTYYADSVKGRFTISRDNAKHTVYLQMYSLKPEDTAVYYCAAAPDWKDSLPPDMDYWGQGTQVSVSS,low polyreactivity
19,QVQLVESGGGLDQAGGSLRLSCAASGSTFSRYAMGWYRQPPGKERELVAAISWRGGSTYYADSVKGRFTISRDNAKNTVYLQMNSLKPEDTAVYYCNKAGFWFVVYKRQEYWGQGTQVTVSS,high polyreactivity
20,QVQLVESGGGLDQAGGSLRLSCAASGSTFVYYAMGWYRQAPGKERELVAAITASGGGTYYADSVKGSFTISRDNAKNTVYLQMNSLKPEDTAVYYCAANDYWYSRGDNQFYYRGQGTQVTVSS,low polyreactivity
21,QVQLVESGGGLDQAGGSLRLSCAASGSTFYFYAMGWYRQAPGKEMELVAVISSGGRTYYADSVKGRFTISRDNAKNTVYLQMNSLKPEDTAVYYCAASWPSSLTYYYWGQGTQVTVSS,low polyreactivity
22,QVQLVESGGGLDQAGGSLRLSCAASGSTFYSYDMGWYRQAPGKEREMVAAISSGGSTYYADSVKGRFTISRDNAKNTVYLQMNSLKPEDTEVYYCAAKRRATTGYRYDYWGQGTQGTVSS,high polyreactivity

row,Sequence,polyreactivity (PSR sort gate)
1,QVQLVESGGGLDQAGGSLRLSCAASVRIFEENAMGWSRQAPGKEREFVAVITSSGGGTYYADSVKGRFTISRDKAKNTVYLQMNSLKPEDTAVYYCARADKLHTRGWGRWGSGSYSWGQGTQVTVSS,low polyreactivity
2,QVQLVESGGGLDQAGGSLRLSCAATGGTFTRKAMGWYRQAPGKERELVASITSGDTTNYADSVKGRFTISRDNAKNTVYLQMNSLKPEDTAVYYCATDTPTDRYAAYPHDPYYYWGQGTQVTVSS,low polyreactivity
3,QVQLVESGGGLDQAGGSLRLSCADSGSLSDWNAMVSYRQAAGKEREWVAAINWSGDTTYYADSVKGRFTISRDNAKNTFYLQMNCLNPEDTAVYYCAAELVVDYDWYDYWGQGTQVTVSS,high polyreactivity
4,QVQLVESGGGLDQAGGSLRLSCDASGSSFRKYAMVLYRQAPGKEREFVAAISSSGGRTYYADSVKGRFTISRDNAKYTVYLQMNSLKPEDTSVYYFADDVYSDRYDYWGQGTQVTVSS,high polyreactivity
5,QVQLVESGGGLDQAGGSLRLSCPASGNIFTGNAMGWYRQAPGKEREFVAAISSVGGSTYYADSVKGRFTISRDNAKNTVYLQMNSLKPEDTAVYYCAASRVRYSYGYPYYYWGQGTQVTVSS,high polyreactivity
6,QVQLVESGGGLDQAGGSLRLTCAASGSIFVYNAMGWYRQAPGKEREFVAAITWRGGRTYYADSVKGRFTISRDNAKNTVYLQMNSLKPEDTAVYYCAADGGSTLDYYWGQGTQVTVSS,low polyreactivity
7,QVQLVESGGGLDQAGGSLRLTCAASGSTFRVYAKGSYSQAPRKERELGAAISRSGGSTTDYADSVKGRFTISRENAKNTVYLQINSLNPEDTAVYFCSDRDYKVQKIYDYWGLGTQVTVSS,low polyreactivity
8,QVQLVESGGGLDQAGGSLSLSCAASGYTYRLYAMGWYRQAPGKERELVAAITWRGGSTYYADSVKGRFTISRDNAKNTVYLQMNSLKPEDTAVYYCAAEFYIGRQGNYWGLGTQVTVSS,high polyreactivity
9,QVQLVESGGGLDQAGVRLRLSCAASGRIVSSYAMGWYRQAPGKERELVAAIRRGGGSTSYADSVKGRFTISRDNAKKTVYLQMNSLKPEDTAVYYCAADSPRGQVHYIGGYWGQGTQVTVSS,low polyreactivity
10,QVQLVESGGGLDQAGVSLRLSCAASGNIFSWNTMGWYRPAPGKERELVAAITFRGTRTFYADSVKGRFTISRDNAKNNVYLHMNSLKPEDTAVYYSAARYYYSYSLGYDYWGQGTQVTLSS,high polyreactivity
11,QVQLVESGGGLDQARGSLRLSCAASGFIFQIYAMGWYRQAPGKERELVAAITSRAGSTYYADSVKGRFTISRDNAKNTVYFQMNSLKPEDTAVYFCNKVFFLPTSRAYEYWGQGTQVTVSS,high polyreactivity
12,QVQLVESGGGLDQARGSLRLSCAASGSIFGENAMGWYRQAPGKERELVAAISTSGGTTYYADSVKGRFTISRDNAKNTVYLQMNSLKPEDTAVYYCAKPYTSFSPYDYWGQGTQVTVSS,low polyreactivity
13,QVQLVESGGGLDQARGSLRLSCAASGSITTFYAMGWSRQAHGKERELVAAISSSGGSTYYADSVKGRFTISRDNAKNTVYLQMNSLKPEDTAVYSCAAKGYPSRYSYGWYNYWGQGTQVTLSS,high polyreactivity
14,QVQLVESGGGLDQARGSLRLSCAASGSTFKSYVMGWYRQAPGKVRELVAAISQSGGNTNYADSVKGRFTISRDNAKNTVYLQMNSLKPEDTAVDYCAADVLGTTTTVGGFNYWGQGTQVTVSS,low polyreactivity
15,QVQLVESGGGLDQAVGSLRLSCAASGSIFKPYAMGWYRQAPGKERELVAGITAGGGSTYYADSVKGRFTISRDNAKNTVYLQMNSLKPEDTAVYYCSVDPYNIFTDDIVENDYWGQGTQVTVSS,low polyreactivity
16,QVQLVESGGGLDQEGGSLRLSSAASGRTFRGYAMGWYIQAPGKEREIVDAISRGTVGTYYADSVKGRFTISRDNAKNTVYLQMISLKPEDTAVYYCAADRFANFSNLRLGYYSWGQGTQLTVSS,low polyreactivity
17,QVQLVESGGGLEQAGGSLRLSCAASGRTLPIYAMGWYIQAPGKERELVAAISWSGASTYADSVKGRFTISRDNAKNTVYLQMTSLKPEETAVYYCAAYYVYWYSSYGYGYWGQGTQVTVSS,low polyreactivity
18,QVQLVESGGGLFHAGGSLRLSCAASGSTFTDDDMGWYRQAPGKERELVAAMSWSGGSTYYADSVKGRFTISRDNAKNTVYLQMNSLKPDDTADYYCAFRYHGYDYWGQGTQVTVSS,high polyreactivity
19,QVQLVESGGGLFKAGGSLRLSCAASGSTLPGYAMGWYRQAPGKERELVAAITGSGGRTYYADSVKGRFTISRDNAKYTVYLQMNSLKPEDTAVYYCGRGQRVYRSQGDYWGQGSQVTVSS,high polyreactivity
20,QVQLVESGGGLFQAGGNLRLSCAASGRTFYPNAMGWYRQAPGKERELVAGIRSSGDSTYYADSVKVRFTISRDNAKNTVYFQMNSLKPEDTAVYYCNRDLTPSYDYWGQGSQVTVSS,low polyreactivity
21,QVQLVESGGGLFQAGGRLRLSCAASGITFVYYAMGWSRQAPGKERELVAAISWGGGSTYYADSVKGRFTISSDNAKNTVYLQMNSLKPEDTAVYYCAADAYVNATPEVSAMGYWGQGTQVTVSS,low polyreactivity

# — the nanobody polyreactivity screen of Harvey et al. (2022)
